Test results published in patent US9096835B2, “DNA polymerase” (Medical Research Council, priority 2003, dated 2015).
Values joined by “and” are separate entries in the source; they are usually repeats but may differ in a detail not shown here. Equal entries are not always repeated.

Tests used:
[1] = biological target: matched and mismatched primer-template duplex; assay: Template affinity equilibrium binding assay; settings: not shown
Protocol: An equilibrium binding assay (12) was used to determine relative affinity of polymerases for the mismatched primer-templates used in the kinetics assays. Polymerases were preincubated at 60° C. in 1× Taq buffer with 50 nM ^32P-labeled matched primer-template and 50 nM unlabeled mismatched competitor primer-templates. Reactions were initiated by simultaneous addition of dCTP (200 μM) and trap DNA (XbaI/SalI-restricted sheared salmon sperm DNA, 4.5 mg/ml).

[2] = test system: template containing a cis-syn cyclobutane thymine-thymine dimer (CPD); assay: Translesion replication assay (primer extension), CPD; type: biochemical; settings: gel-extension assay, 60° C.
Protocol: (§1) Template primers 22 (undamaged) or 23 (containing a synthetic abasic site) were synthesized by Lofstrand Laboratories (Gaithersburg, Md.). Template primer 24 (containing a single cis-syn thymine dimer), was synthesized as described (34). Primer 25 was ^32P-labeled and annealed to one of the three templates 22, 23, 24 (at a primer template ratio of molar 1:1.5) and extended in 40 mM Tris.HCl at pH 8.0, 5 mM MgCl2, 100 μM of each dNTP, 10 mM DTT, 250 μg/ml BSA, 2.5% glycerol, 10 nM primer-template DNA and 0.1 Unit of polymerase at 60° C. for various times.
Primer extension assays were essentially as described in (Ghadessy et al., 2004). Briefly, undamaged oligonucleotides and a 51mer containing a synthetic abasic site were synthesized by Lofstrand Laboratories (Gaithersburg, Md.) using standard techniques and were gel purified prior to use. A 20mer primer (LES—20 P) with the sequence 5′-[…]-3′ (SEQ ID NO: 99) was 5′-labeled with [^32P]ATP (5000 Ci/mmole; 1 Ci=37 GBq) (Pharmacia) using T4 polynucleotide kinase (Invitrogen, Carlsbad Calif.). Radiolabeled primer-template DNAs were prepared by annealing the 5′[^32P] labeled 20mer primer to one of the two following 51mer templates (at a primer template ratio of molar 1:1.5). 1) undamaged DNA (UNDT51T); 5′-AGCTACCATGCCTGCACGAATTCGGCATCCGTCGCGACCACGGTCGCAGCG-3′ (SEQ ID NO: 100); 2) an oligo (LABA51T) containing a synthetic abasic site (indicated as an X in bold font); 5′-AGCTACCATGCCTGCACGACA XCG GCATCCGTCGCGACCACGGTCGCAGCG-3′ (SEQ ID NO: 101). Standard replication reactions of 10 contained 40 mM Tris.HCl at pH 8.0, 5 mM MgCl2, 100 μM of each ultrapure dNTP (Amersham Pharmacia Biotech, NJ), 10 mM DTT, 250 μg/ml BSA, 2.5% glycerol, 10 nM 5′[32P] primer-template DNA and 0.1 Unit of polymerase. After incubation at 60° C. for various times reactions were terminated by the addition of 10 μl of 95% formamide/10 mM EDTA and the samples heated to 100° C. for 5 min. Reaction mixtures (5 μl) were subjected to 20% polyacrylamide/7 M Urea gel electrophoresis and replication products visualized by PhosphorImager analysis.

undamaged template = assay: Translesion replication assay, control; type: biochemical; settings: gel-extension assay, 60° C.
Protocol: as §1

[3] = test system: primer-template duplex, correct or incorrect incoming dNTP; assay: Steady-state single nucleotide incorporation kinetics, gel-based assay; type: biochemical
Protocol: Kinetic parameters were determined using a gel-based assay essentially as described (16). Primers 15, 16, 17 (3′ base=G, C, A respectively) were ^32P-labeled and annealed to one of template strands 18, 19, 20 (template base=C, G, A respectively) or 21 (template base C different context). Duplex substrates were used at 50 nM final concentration in 1× Taq buffer with various concentrations of enzyme and dNTP. Reactions were carried out at 60° C. for times whereby <20% of primer-template was utilized at the highest concentration of dNTP.
Extension and incorporation kinetics of M1 and M4 for a selection of mismatches were measured using a gel-based steady-state kinetic assay (Goodman) (Tables 1 & 2). M1 and M4 respectively extend a C•C mispair 390 and 75-fold more efficiently than wtTaq. […] The gain in extension efficiency derives predominantly from increased relative Vmax values for the mutant polymerases, while Km for nucleotide substrates remains largely unchanged. For most DNA polymerases the relative efficiency of extending a given mispair (f0ext) is similar to the relative efficiency of forming it (finc) (Goodman 1993, Goodman 1990, Washington 2001). Indeed, M1 and M4 respectively incorporate dCTP opposite template base C 206- and 29-fold more efficiently than wtTaq (Table 2).

[4] = PCR with all four dNTPs replaced by αS dNTPs; type: biochemical; settings: 50 cycle PCR, 50 μM αS dNTPs
Protocol: A PCR assay was used to screen and rank clones. Briefly, clones were normalized for activity in PCR with matched primers 3, 4 and activity with mismatched primers 1 and 2 (1 μM each) determined at minimal cycle number (15-25 cycles). Extension capability for different mismatches was determined by the same assay using mismatch primers 2 (C•C mismatch), 5 (A•A mismatch), 6 (G•G mismatch), 7 (G•A mismatch) with matched primer 3 or primer 1 (A•G mismatch) with matched primer 4. Incorporation of unnatural substrates in 50 cycle PCR was carried out using standard conditions and 50 μM […] dNTPs (Promega) or 50 μM FITC-12-dATP (Perkin-Elmer), Rhodamine-5-dUTP (Perkin-Elmer) or Biotin-16-dUTP (Roche) with equivalent amounts of the other 3 dNTPs (all 50 μM). Long PCR was carried out using a two-step cycling protocol as described (22) 94° C. for 2 minutes, followed by 20 cycles of (94° C. 15 sec, 68° C. 30 min) using 5 ng of phage λ DNA (New England Biolabs) template and either primers 9, 10, 11 with primer 12 or primer 13 with primers 10, 14.

B1: M4: Taq mutant D58G, R74P, A109T, L245R, R343G, G370D, E520G, N583S, E694K, A743P; SEQ ID NO 2 (protein)
chain: MRGMLPLYEPKGRVLLVDGHHLAYRTFHALKGLTTSRGEPVQAVYGFAKSLLKALKEGGDAVIVVFDAKAPSFPHEAYGGYKAGRAPTPEDFPRQLALIKELVDLLGLTRLEVPGYEADDVLASLAKKAEKEGYEVRILTADKDLYQLLSDRIHVLHPEGYLITPAWLWEKYGLRPDQWADYRALTGDESDNLPGVKGIGEKTARKLLEEWGSLEALLKNLDRLKPAIREKILAHMDDLKLSWDRAKVRTDLPLEVDFAKRREPDRERLRAFLERLEFGSLLHEFGLLESPKALEEAPWPPPEGAFVGFVLSRKEPMWADLLALAAARGGRVHRAPEPYKALGDLKEARGLLAKDLSVLALREGLGLPPDDDPMLLAYLLDPSNTTPEGVARRYGGEWTEEAGERAALSERLFANLWGRLEGEERLLWLYREVERPLSAVLAHMEATGVRLDVAYLRALSLEVAEEIARLEAEVFRLAGHPFNLNSRDQLERVLFDELGLPAIGKTEKTGKRSTSAAVLGALREAHPIVEKILQYRELTKLKSTYIDPLPDLIHPRTGRLHTRFNQTATATGRLSSSDPNLQSIPVRTPLGQRIRRAFIAEEGWLLVALDYSQIELRVLAHLSGDENLIRVFQEGRDIHTETASWMFGVPREAVDPLMRRAAKTINFGVLYGMSAHRLSQELAIPYEEAQAFIKRYFQSFPKVRAWIEKTLEEGRRRGYVETLFGRRRYVPDLEARVKSVREPAERMAFNMPVQGTAADLMKLAMVKLFPRLEEMGARMLLQVHDELVLEAPKERAEAVARLAKEVMEGVYPLAVPLEVEVGIGEDWLSAKE
modifications: Mutant Thermus aquaticus DNA polymerase
In the case of B1, the “dissociation constants for matched and mismatched primer-template duplex” value [1] is reported as “indistinguishable”, the “CPD bypass in primer extension” value [2] is reported as “able to readily extend all of the primer to the 3′T of the dimer” and the “primer extension on undamaged template” value (undamaged template) is reported as “efficiently and rapidly extended primers to the end of the template”. For the same molecule, the Km ([3]; base pair C: dCTP) was 1390 µM, the “Ratio of finc, finc (mutant polymerase)/finc (wtTaq)” value (“Ratio of finc, finc” below) ([3]; base pair C: dCTP) was 29 and 29.22 and the “finc, f (incorrect dNTP)/f (correct dNTP)” value (shortened to “finc, f (incorrect dNTP)/f”) ([3]; base pair C: dCTP) was 1.13 × 10^−6. For the same molecule, the Vmax ([3]; base pair C: dCTP (template base: incoming nucleotide)) was 52.63 % Min^−1, the Vmax ([3]; base pair C: dGTP (template base: incoming nucleotide), correct dNTP) was 335.42 % Min^−1 and the Km ([3]; base pair C: dGTP, correct dNTP) was 0.01 µM. The Km ([3]; base pair G: dATP) was 158 µM, the “Ratio of finc, finc” value ([3]; base pair G: dATP) was 2.18 and the “finc, f (incorrect dNTP)/f” value ([3]; base pair G: dATP) was 1.80 × 10^−4. It also gave a Vmax ([3]; base pair G: dATP (template base: incoming nucleotide)) of 1935.48 % Min^−1, a Vmax ([3]; base pair G: dCTP (template base: incoming nucleotide), correct dNTP) of 817 % Min^−1 and a Km ([3]; base pair G: dCTP, correct dNTP) of 0.012 µM. The Km ([3]; base pair G: dGTP) was 82.3 µM, the “Ratio of finc, finc” value ([3]; base pair G: dGTP) was 68.82 and the “finc, f (incorrect dNTP)/f” value ([3]; base pair G: dGTP) was 1.17 × 10^−4. The Vmax ([3]; base pair G: dGTP (template base: incoming nucleotide)) was 656.46 % Min^−1, the Km ([3]; base pair G: dTTP) was 5.1 µM and the “Ratio of finc, finc” value ([3]; base pair G: dTTP) was 1.1. The “finc, f (incorrect dNTP)/f” value ([3]; base pair G: dTTP) was 1.82 × 10^−4, the Vmax ([3]; base pair G: dTTP (template base: incoming nucleotide)) was 63.20 % Min^−1 and the “PCR amplification with all four αS dNTPs” value [4] was “to lesser extent”.
